Measurements reported in PMC3098285.

Target: T1, His-PhoP (Salmonella enterica serovar Typhimurium (strain SL1344?)) (UniProt E1WFA1)
T1 sequence: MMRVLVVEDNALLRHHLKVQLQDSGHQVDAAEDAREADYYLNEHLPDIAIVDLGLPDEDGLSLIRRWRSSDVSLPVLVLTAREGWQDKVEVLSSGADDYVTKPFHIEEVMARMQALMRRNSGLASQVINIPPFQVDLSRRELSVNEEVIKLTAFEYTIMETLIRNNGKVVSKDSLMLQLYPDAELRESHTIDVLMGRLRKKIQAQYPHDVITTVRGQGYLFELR
Experiment: EMSA
Conditions: 20 mM HEPES pH 7.6, 1 mM EDTA, 10 mM (NH4)2SO4, 5 mM DTT, 0.2% Tween 20, 30 mM KCl, 0.1 ug poly-L-lysine, 1 ug poly(dI-dC), 50 mM acetyl phosphate, 37 C …

CGCTCACCTCTTCTGTATATAAGCTGTGAAATTGCGGTATGCTCAATCGGTAAAGTGAATTTACACATATATTCATTTTGCTCTGTTTCCTGGTAAGTGAAAGTAGCGAATATGATGTAATGTATAATT (double strand) [sseL promoter 128-bp fragment]
binding: binds
